This passage reports Kd results from PMC5875921.

Data set [1] concerns NmeCas9 (Neisseria meningitidis). Briefly: fluorescence polarization. As to conditions: not given in the material (Methods absent).
For data set [2], the target named is HNH domain of NmeCas9 (Neisseria meningitidis) (UniProt C9X1G5). Briefly: ITC.

Consider NmeCas9 sgRNA + target DNA, for which the Kd in data set [1] worked out at 71 nM.
“AcrIIC1 from Neisseria meningitidis (natural protein)”: the Kd in data set [2] came out at 6.3 nM. That is a single-digit nanomolar value.
